From the nanobody polyreactivity screen of Harvey et al. (2022) come the findings set out here.

This data set is described as follows: yeast display, Sf9 membrane polyspecificity reagent, FACS + sequencing; frameworks hold sequencing errors. The procedure, abridged:
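A synthetic nanobody library was expressed on Saccharomyces cerevisiae BJ5465 by galactose induction for 36–48 hours. The library was stained for 1 hour at 4 °C with 10% biotinylated, detergent-solubilized Sf9 membrane reagent and enriched with streptavidin microbeads before FACS. Low and high (top ~1%) gates were set on anti-HA fluorescence for expression and streptavidin fluorescence for reagent binding, and each polyreactivity label reflects the gate of origin.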
Regarding “QVQLVESGGGLVQAGGSLRLSCAASGSIFYPYAMGWYRQAPGKERELVAAISSGGTTYYADSVKGRFTISRDNAKNTVYLQMNSLKPEDTAVYYCAAGFYLRAVWMDYWGQGTQVTVSS”, the “polyreactivity (PSR sort gate)” value is reported as “high polyreactivity”.

Regarding “QVQLVESGGGLVQAGGSLRLSCAASGSIFYQNAMGWYRQAPGKEREFVAAIRSSGSSTYYADSVKGRFTISRDNAKNTVYVQMNCLKPEDTAVYYCAADNPGGYRGKVDYWGQGTQVTVSS”, the “polyreactivity (PSR sort gate)” value was “high polyreactivity”.

Regarding “QVQLVESGGGLVQAGGSLRLSCAASGSIFYQYAMGWYRQAPGKERELVAAISRSGGSTYYADSVKGRFTISRDNPKNTVYLQMNSLKPEDTAGYYCAARAVRAAYDYWGQGSQVTVSS”, the “polyreactivity (PSR sort gate)” value is recorded as “low polyreactivity”.

For the sequence “QVQLVESGGGLVQAGGSLRLSCAASGSIFYQYAMGWYRQAPGKERELVAGITWSGGSTYYADSVKGRFTISRDNAKYTVYLQMNSLKPEDTAVFYCAAQYFWYVYSYDYWGQGTQVTVSS”, the “polyreactivity (PSR sort gate)” value is “high polyreactivity”.

For the sequence “QVQLVESGGGLVQAGGSLRLSCAASGSIFYQYAMGWYRQAPGKERELVARIRGSTGTTYYADSVKGRFTFSRDYAKNTVYLQMNSLKPEDNAVYYCNAARYQGRSRFDYWGQGTQVTVSS”, the “polyreactivity (PSR sort gate)” value is reported as “high polyreactivity”.

“QVQLVESGGGLVQAGGSLRLSCAASGSIFYRNAMGWYRQAPGKERELVAAISSDGSTNYADSVKVRFTISRDNAKNTVYLQMNSLKPEDTAVYYCAAPWTQILDYWGQGTQVTVSS”: the “polyreactivity (PSR sort gate)” value is on record as “low polyreactivity”.

Regarding “QVQLVESGGGLVQAGGSLRLSCAASGSIFYRNAMGWYRQAPGKERELVAAISWSGSRTYYADSVKGRFTISRDNAKNTVYLQMNSLKPEDTAVYYCNRQYNQWIHYYYRMDYWGQGTQVTVSS”, the “polyreactivity (PSR sort gate)” value was “high polyreactivity”.

Consider “QVQLVESGGGLVQAGGSLRLSCAASGSIFYRYAMGWYRQAPGKERELVAAISDRSGSTYYADSVKGRFTISRDNAKNTVYLQMNSLKPEDTAVYYCAAAYNYRAAGYGLSRYYYWGQGTQVTVSS”, for which the “polyreactivity (PSR sort gate)” value was “high polyreactivity”.

For “QVQLVESGGGLVQAGGSLRLSCAASGSIFYRYAMGWYRQAPGKERELVAAISSNGVSTYYADSVKGRFTISRDNAKNTVYLQMNSLKPEDTAVYYCARDVYASPRLYTSRYNYWGQGTQVTVSS”, the “polyreactivity (PSR sort gate)” value is recorded as “low polyreactivity”.

Regarding “QVQLVESGGGLVQAGGSLRLSCAASGSIFYRYAMGWYRQAPGKERELVASISKSGGSTYYADSVKGRFTISRDNAKNTVYLQMNSLKPEDTAVYYCAKKPRGTVYRFDYWGQGTQVTVSS”, the “polyreactivity (PSR sort gate)” value is listed as “high polyreactivity”.

As to “QVQLVESGGGLVQAGGSLRLSCAASGSIFYRYAMGWYRQAPGKERELVASISSGVSTNYADSVKGRFTISRDNAKNTVYLQLNSLKPEDTAVYYCAVRHRYTRAYWGRDYWGQGTQVTVSS”, the “polyreactivity (PSR sort gate)” value is reported as “low polyreactivity”.

With “QVQLVESGGGLVQAGGSLRLSCAASGSIFYRYAMGWYRQAPGKERELVATISSGGRTYYADSVKGRFTISRDNAKNTVYLQMNSLKPEVTAVYYCAAKRFSSPYWEYYWGQGTQVTVSS”, the “polyreactivity (PSR sort gate)” value is “high polyreactivity”.

Turning to “QVQLVESGGGLVQAGGSLRLSCAASGSIFYRYAMGWYRQAPGKVRELVAAINNGGGRTYADSVKGRFTISRDNAKNTVYFQMNSLKPEDTAVYYCAKRTSRLAPYDYWGQGTQVTVSS”, the “polyreactivity (PSR sort gate)” value is recorded as “high polyreactivity”.

In the case of “QVQLVESGGGLVQAGGSLRLSCAASGSIFYRYAMGWYRQGPGKERELVAGITRGGSTNYADSVKGRFTISRDNAMNTVYLQMNSLKPEDTAVYYCAARSYVYVHYYYWGQGTQVTVSS”, the “polyreactivity (PSR sort gate)” value is “high polyreactivity”.

Regarding “QVQLVESGGGLVQAGGSLRLSCAASGSIFYRYSMGWYRQAPGKEREFVAAITWSGGSTYYADSVKGRFTISRDNAKNTVYLQMNSLKPEDTAVYYCAKDSGSYRVGIYEPFPYGYWGQGTQVTVSS”, the “polyreactivity (PSR sort gate)” value is given as “low polyreactivity”.

In the case of “QVQLVESGGGLVQAGGSLRLSCAASGSIFYSNAMGWSRQAPGKEREFVAAISAGGGSTYYADSVKGRFTISRDNATNTVYLQMISLKPEDTAVYYCAADYFYPYYGAMDYWGQGTQVTVSS”, the “polyreactivity (PSR sort gate)” value is “low polyreactivity”.

As to “QVQLVESGGGLVQAGGSLRLSCAASGSIFYSNAMGWYRQAPGKEREFVAAISAGGGSTYYADSVKGRFTISRDNAKNTVYLQMNSLKPEDTAVYYCAATDEYYIQVWFPYDYWGQGTQVTVSW”, the “polyreactivity (PSR sort gate)” value is “low polyreactivity”.

For the sequence “QVQLVESGGGLVQAGGSLRLSCAASGSIFYSNAMGWYRQAPGNERELVAAITYRGGRTYYADSVKGRFTISRDNAKNTVYLQKNSLKPEDTAVDYCAKVVRAQALDSIYNGRYDYWGEGTQVTVSS”, the “polyreactivity (PSR sort gate)” value was “low polyreactivity”.

As to “QVQLVESGGGLVQAGGSLRLSCAASGSIFYSNAMVWYRQAPGKEREFVAAISTSAGRTYYADSVKGRFTISRDNAKNKVYLQLNSLNPEDTEVYYCAAGTNYGKLRIRFDYWGQGTQVTVSS”, the “polyreactivity (PSR sort gate)” value is “low polyreactivity”.

Take “QVQLVESGGGLVQAGGSLRLSCAASGSIFYSNTMGWYRQAPGKERELVAAISSSSGRTYYADSVKGRFTISRDNAKNTGFLQMNSLKPEDTAVYYCARRYGWGQGTQVTVSS”: the “polyreactivity (PSR sort gate)” value was “high polyreactivity”.

Regarding “QVQLVESGGGLVQAGGSLRLSCAASGSIFYSYAMGWYRQAPGKARELVATISWAGGRTNYADSVKGRFTISRDNAKNTEYLQMNSLKPEDTAVSYCNKPFPYYPDGPNGYDYWGQGTQVTVSS”, the “polyreactivity (PSR sort gate)” value is reported as “low polyreactivity”.

Consider “QVQLVESGGGLVQAGGSLRLSCAASGSIFYSYAMGWYRQAPGKERELVAAISWDASTYYADSVKGRFTISRDNAKNTVDLQMNSLKPEDTAVYYCNKRWFAPPPYSYVRSYDYWGQGTQVTVSS”, for which the “polyreactivity (PSR sort gate)” value was “low polyreactivity”.

As to “QVQLVESGGGLVQAGGSLRLSCAASGSIFYSYMGWYRQAPGKERECVAAINQRGSSTYYADSVKGRFTISRDNAKNTVYLQMNSLKPEDTAVYDCAAVFFGVYTSRRYYWGQGTQVTVSS”, the “polyreactivity (PSR sort gate)” value is on record as “high polyreactivity”.

For “QVQLVESGGGLVQAGGSLRLSCAASGSIFYTNAMGWYRQAPGKERELVAAIRWSGGRTYYADSVKGRFTISRDNAKNTVYLQMNSLKPEDTAVYYCNVVVRYPSAYDYWGQGTQVTVSS”, the “polyreactivity (PSR sort gate)” value is “high polyreactivity”.

Take “QVQLVESGGGLVQAGGSLRLSCAASGSIFYTNAMGWYRQAPGKERELVAAITNGSSTNYADSVKGRFTISRDNAKNTVYLQMNSLNPEDTAVYYCAKYFGNYSIYDYWGQGTQVTVSS”: the “polyreactivity (PSR sort gate)” value is reported as “low polyreactivity”.

“QVQLVESGGGLVQAGGSLRLSCAASGSIFYTNAMGWYRQAPGKERELVAAITRTGSTNYADSVKGRFTISRDNAKNTVYLQMNSLKPEDTAVYYCNARRYYRYGYWGQGTQVTVSS”: the “polyreactivity (PSR sort gate)” value is “high polyreactivity”.

With “QVQLVESGGGLVQAGGSLRLSCAASGSIFYTNAMGWYRQAPGKERELVAAITWSGGRTYYADSVKGRFTISRDIAKNTVYLQMNSLKPEDTAVYYCNREGWHYGPYGYWGQGTQVTVSS”, the “polyreactivity (PSR sort gate)” value is “low polyreactivity”.

In the case of “QVQLVESGGGLVQAGGSLRLSCAASGSIFYTNAMGWYRQAPGKERELVATITSSTGSTNYADSVKGRFTISRDNAKNTVYLQMNSLKPEDTAVYYCAKRDCYWVYYQMDYWGQGTQVTVSS”, the “polyreactivity (PSR sort gate)” value was “low polyreactivity”.

“QVQLVESGGGLVQAGGSLRLSCAASGSIFYTNVMGWYRQAPGKERELVARIDSGGSTNYADSVKGRFTISRDNAKNTVFLQMNSLNPEDTAVYYCAADWYIYDYWGQGTQVTVSS”: the “polyreactivity (PSR sort gate)” value was “low polyreactivity”.

As for “QVQLVESGGGLVQAGGSLRLSCAASGSIFYTNVMGWYRQAPGKERELVAVISSGGSTYYADSVKGRFTISRDNAKNTVYFQMNSLKPEDTAGYYCNADSVSSPPYYDYWGQGTQVTVSS”, the “polyreactivity (PSR sort gate)” value is recorded as “high polyreactivity”.

Regarding “QVQLVESGGGLVQAGGSLRLSCAASGSIFYTYAMGWYRQAPGKERELVAAINWSGGRTYYADSVKGRFTISRDNAKNTVYLQMNSLTPEDTAVYSCAARRGRSWGGFDYWGQGTQVTVSS”, the “polyreactivity (PSR sort gate)” value was “low polyreactivity”.

“QVQLVESGGGLVQAGGSLRLSCAASGSIFYTYTMGWYRQAPGKERELVAAISRGGRTYYADSVKGRFTISRDNAKNTVYLQMNSLKPEDTAVYYCAAYGYGSWGQGTQVTVSS”: the “polyreactivity (PSR sort gate)” value is given as “high polyreactivity”.

Take “QVQLVESGGGLVQAGGSLRLSCAASGSIFYVNAMGWYRQAPGKERELVAAISYRGGSTYYADSVKGRFTISRDNAKNTVYLQMNSLKPEDTAVYYCAARGYYRPSQTTGRIKYDYWGQGTQVTVSS”: the “polyreactivity (PSR sort gate)” value was “high polyreactivity”.

“QVQLVESGGGLVQAGGSLRLSCAASGSIFYVNGMGWSRQAPGKERELVARITLSGTSTYYADSVKGRFTISRDNAKNTVYLQMNSLKPEDTAVYYCAAPYFTYGQDDDDYWGQGTQVTVSS”: the “polyreactivity (PSR sort gate)” value is “low polyreactivity”.

Consider “QVQLVESGGGLVQAGGSLRLSCAASGSIFYVYAMGRYRQAPGKERELVASINKSGGSTYYADSVKGRFTISRDNAKNTVYLQMNSLKPEDTAVYYCAARTGWPRVGFQYPAHVGFDYWGQGTQVTVSS”, for which the “polyreactivity (PSR sort gate)” value is recorded as “low polyreactivity”.

Turning to “QVQLVESGGGLVQAGGSLRLSCAASGSIFYVYAMGWYRQAPGKERELVAAISSSAGSTYYADSVKGRFTISRDNAKNTVYLQMNSLKPEDTAVYYCAAKVRYSLRKYYYWGQGTQVTVSS”, the “polyreactivity (PSR sort gate)” value is reported as “high polyreactivity”.

As to “QVQLVESGGGLVQAGGSLRLSCAASGSIFYVYAMGWYRQAPGKERELVAAITARVTSTYYADSVKGRFTISRDNAKNTVYLQMNRLKPEDTADYYCAARTSYKTGYRKYDYWGQGTQVTVSS”, the “polyreactivity (PSR sort gate)” value is “low polyreactivity”.

Regarding “QVQLVESGGGLVQAGGSLRLSCAASGSIFYVYAMGWYRQAPGKERELVAAITNYADSVKGRFTISRDNAKNTVYLQMNSLKPEDTAVYYCAADWWRVEMDYWGQGTEVTVSS”, the “polyreactivity (PSR sort gate)” value is listed as “low polyreactivity”.

As for “QVQLVESGGGLVQAGGSLRLSCAASGSIFYVYAMGWYRQAPGKERELVAAITSGGSTNYADSVKGRFTISRDNAKNTVYLQMNSLKPEDTAVYYCAAAWENIWVWQEYIEYDYWGQGTQVTVSS”, the “polyreactivity (PSR sort gate)” value is recorded as “low polyreactivity”.

Turning to “QVQLVESGGGLVQAGGSLRLSCAASGSIFYVYAMGWYSQARGKEMELVAAISSSAGSTYYADSVKVRFTISRDNAKTTVYLQINSLIPEDTAVDYCAAKVRYSLRKYYYWGQGTQVTVSS”, the “polyreactivity (PSR sort gate)” value is “high polyreactivity”.

As for “QVQLVESGGGLVQAGGSLRLSCAASGSIFYVYTMGWYRQAPGKERELVAAISSSAGSTYYADSVKGRFTISRDNAKNTVYLQMNSLKQEDTAVYYCAAKVRYSLRKYYYWGQGTQVTVSS”, the “polyreactivity (PSR sort gate)” value is “high polyreactivity”.
